Test results reported in patent US20200377579A1 (Biogen, published 2020).

Key:
aggregated α-synuclein [1] = target: T1, aggregated α-synuclein (human, UniProt P37840 1-140); test: in vitro binding, method not stated; same EC50 in mass units
aggregated α-synuclein [2] = target: T1, aggregated α-synuclein; test: in vitro binding, method not stated; estimated from binding constants

EC50 (aggregated α-synuclein [1]): ~0.0375 mg/L | EC50 (aggregated α-synuclein [2]): ~0.25 nM
B1: BIIB054 (antibody, human IgG1, lambda, V domains shown)
VH: EVQLVESGGGLVEPGGSLRLSCAVSGFDFEKAWMSWVRQAPGQGLQWVARIKSTADGGTTSYAAPVEGRFIISRDDSRNMLYLQMNSLKTEDTAVYYCTSAHWGQGTLVTVSS
VL: SYELTQPPSVSVSPGQTARITCSGEALPMQFAHWYQQRPGKAPVIVVYKDSERPSGVPERFSGSSSGTTATLTITGVQAEDEADYYCQSPDSTNTYEVFGGGTKLTVLS
notes: Fully human IgG1/lambda monoclonal antibody; also called anti-α-synuclein antibody
